We go through two molecules from patent US20240376190A1 (Chugai, published 2024).

The target in assay [1] is T1, mouse cell surface latent TGF-beta 1 expressed on Ba/F3 cells (mouse, UniProt P04202 30-390).
T1 construct: whole, on cells; also called mouse latent TGF-beta 1
Briefly: flow cytometry (FACS) on BaF3 cells, PE anti-human IgG secondary. (In flow cytometry, cells or beads pass a laser one at a time.)
Description: (§1) The anti-latent TGF-beta 1 antibodies (10 microgram/mL each) were incubated with each cell line for 30 minutes at 4 degree C. and washed with FACS buffer (2% PBS, 2 mM EDTA in PBS). […] Data acquisition was performed on an FACS Verse (Becton Dickinson), followed by analysis and calculation of Mean Fluorescence Intensity (MFI), using FlowJo (trademark) software (Tree Star) and GraphPad Prism software (GraphPad).

The target in assay [2] is T2, human cell surface latent TGF-beta 1 expressed on FreeStyle 293-F cells (human, UniProt P01137 30-390).
T2 construct: whole, on cells; also called human latent TGF-beta 1
The assay can be described thus: flow cytometry (FACS) on FreeStyle 293-F cells, PE anti-human IgG secondary.
Description: as §1

The target of assay [3] is T3, Cyno latent TGF-beta 1 (Cys at the 30th position substituted with Ser (C33S mutation)).
T3 construct: The first reading lists it only inside the group m5; also called FLAG-tagged cynomolgus monkey latent TGF-beta 1; monkey latent TGF-beta 1 (SLC)
Briefly: SPR (BIACORE 8K), ratio calculated from FIGS. 5 and 6.

Assay [4] addresses T4, FLAG-tagged human latent TGF-beta 1 (human, UniProt P01137 34-390).
T4 construct: Co-expressed with human furin, purified on anti-FLAG resin and by gel filtration; also called human latent TGF-beta 1 (SLC); hSLC
Described as above.

Assay [5] has as its target T5, FLAG-tagged mouse latent TGF-beta 1 (mouse, UniProt P04202 34-390).
T5 construct: Co-expressed with human furin; also called mouse latent TGF-beta 1 (SLC); mSLC
The description is as above.

For assay [6], the target named is T3, Cyno latent TGF-beta 1. The assay can be described thus: SPR (BIACORE 8K), antibody captured on anti-human Fc, antigen as analyte, pH 7.4.
Description: (§2) A mouse anti-human Fc (GE Healthcare) was immobilized onto all flow cells of a CM5 sensor chip using amine coupling kit (GE Healthcare). Antibodies were captured onto the anti-human Fc sensor surfaces to around 20RU capture level, then recombinant latent TGF-beta 1 of human, cyno, and mouse was injected over the flow cell. All antibodies and analytes were prepared in ACES pH 7.4 containing 20 mM ACES, 150 mM NaCl, 0.05% Tween 20, 0.005% NaN₃. Sensor surface was regenerated each cycle with 3M MgCl₂.
In assay [7] the target is T4, FLAG-tagged human latent TGF-beta 1. The assay is described as above.
Description: as §2
Assay [8] deals with T5, FLAG-tagged mouse latent TGF-beta 1. The description is as above.
Description: as §2
Assay [9] has as its target T3, Cyno latent TGF-beta 1. The assay can be described thus: SPR (BIACORE 8K), antibody captured on anti-human Fc, antigen as analyte, pH 5.8. A general note: Surface plasmon resonance follows binding to a sensor surface in real time, without labels.
The target of assay [10] is T4, FLAG-tagged human latent TGF-beta 1. The description is as above.
Assay [11] deals with T5, FLAG-tagged mouse latent TGF-beta 1. The description is as above.

T3 sequence (latent TGF-beta 1 (LAP and mature TGF-beta 1), as listed by the source): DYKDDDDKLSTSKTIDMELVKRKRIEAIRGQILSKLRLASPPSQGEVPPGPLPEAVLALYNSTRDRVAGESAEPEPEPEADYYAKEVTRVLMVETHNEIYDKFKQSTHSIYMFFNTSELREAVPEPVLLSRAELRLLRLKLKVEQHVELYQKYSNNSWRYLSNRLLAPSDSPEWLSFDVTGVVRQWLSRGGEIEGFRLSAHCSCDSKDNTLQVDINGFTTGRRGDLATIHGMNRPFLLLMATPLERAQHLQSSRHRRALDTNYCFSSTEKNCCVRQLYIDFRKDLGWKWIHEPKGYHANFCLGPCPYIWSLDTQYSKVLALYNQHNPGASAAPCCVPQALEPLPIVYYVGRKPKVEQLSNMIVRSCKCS

B1: Anti-KLH antibody IC17dK-SG181 (antibody, human IgG1, kappa, V domains shown)
VH: QVQLQQSGPQLVRPGASVKISCKASGYSFTSYWMHWVNQRPGQGLEWIGMIDPSYSETRLNQKFKDKATLTVDKSSSTAYMQLSSPTSEDSAVYYCALYGNYFDYWGQGTTLTVSS
VL: DIQMTQSSSSFSVSLGDRVTITCKASEDIYNRLAWYQQKPGNAPRLLISGATSLETGVPSRFSGSGSGKDYTLSITSLQTEDVATYYCQQYWSTPYTFGGGTKLEVKR
notes: Anti-KLH antibody with a human IgG1 Fc region, used as negative control; also called negative control antibody
As for B1, the binding result in assay [1] and in assay [2] was “no binding (tested: 10 microgram/mL)” in each case.

B2: hT0947AE20-SG191 (antibody, human IgG1)
heavy: QVQLVESGGGVVQPGRSLRLSCAASGFLFSREAMNWIRQPPGKGLEWIGYIYTSGTTYRANWARGRFTISRDNSKNTLYLQMNSLRAEDTAVYYCARGWHIFGHQYWVMHFWGQGTLVTVSSASTKGPSVFPLAPSSKSTSGGTAALGCLVKDYFPEPVTVSWNSGALTSGVHTFPAVLQSSGLYSLSSVVTVPSSSLGTQTYICNVNHKPSNTKVDKRVEPKSCDKTHTCPPCPAPELRRGPSVFLFPPKPKDTLMISRTPEVTCVVVDVSHEDPEVKFNWYVDGVEVHNAKTKPREEQYNSTYRVVSVLTVLHQDWLNGKEYKCKVSNKALPAPIEKTISKAKGQPREPQVYTLPPSREEMTKNQVSLTCLVKGFYPSDIAVEWESNGQPENNYKTTPPVLDSDGSFFLYSKLTVDKSRWQQGNVFSCSVLHEALHAHYTRKELSLSP
light: DIQMTQSPSSLSASVGDRVTITCQASQSISTYEAWYQQKPGQPPKLLIYAASTLESGVPSRFSGSGSGTDFTLTISSLQPEDFATYYCQSYSDGDSVIFGQGTKVEIKRTVAAPSVFIFPPSDEQLKSGTASVVCLLNNFYPREAKVQWKVDNALQSGNSQESVTEQDSKDSTYSLSSTLTLSKADYEKHKVYACEVTHQGLSSPVTKSFNRGEC
notes: Human IgG1, SG191; also called hT0497AE20-SG191
In the case of B2, the “KD ratio pH5.8/pH7.4” value was 113 in the assay with Cyno latent TGF-beta 1 [3], 103 in assay [4] and 131 in assay [5]. Besides, the “koff ratio pH5.8/pH7.4” value was 55.3 in the assay with Cyno latent TGF-beta 1 [3], 51.7 in [4] and 44.2 in [5]. Moreover, the dissociation constant Kd in the assay with Cyno latent TGF-beta 1 [6] came out at 3.78 nM; in assay [7], 3.84 nM; in [8], 5.12 nM; with Cyno latent TGF-beta 1 [9], 427 nM; in assay [10], 395 nM; in assay [11], 669 nM. For the same molecule, the koff with Cyno latent TGF-beta 1 [6] was 0.001 s⁻¹; in [7] it was 0.00104 s⁻¹; in assay [8], 0.00242 s⁻¹; with Cyno latent TGF-beta 1 [9], 0.0553 s⁻¹; in assay [10] it was 0.0538 s⁻¹; in assay [11], 0.107 s⁻¹. The association rate constant (kon) with Cyno latent TGF-beta 1 [6] came to 266000 M⁻¹ s⁻¹; in assay [7], 271000 M⁻¹ s⁻¹; in assay [8], 472000 M⁻¹ s⁻¹; with Cyno latent TGF-beta 1 [9] it was 129000 M⁻¹ s⁻¹; in [10] it was 136000 M⁻¹ s⁻¹; in assay [11] it was 160000 M⁻¹ s⁻¹.

By Kd is commonly meant the equilibrium constant for the complex coming apart. A word on the koff: it is a measure of how fast the partners let go of each other. Low values mean slow dissociation, high ones fast dissociation. As usually defined, the kon is a measure of how fast the partners come together. Lower therefore signals slow association.
